Assay [1] deals with Normal MUC1 on non-transformed MCF-10A cells and on normal tissue (human) (UniProt P15941). Put plainly: flow cytometry, MCF10a cells. On the technique in general: In flow cytometry, cells or beads pass a laser one at a time.
The target in a further assay is BSA (UniProt P02769). Briefly: ELISA on coated BSA, antibody 0.01 mg/ml, mean of 3. A general note: In an ELISA, binding on a coated surface is turned into a signal by an enzyme label.
In another assay the target is Synthetic peptide (…)2. Briefly: ELISA on coated peptide, antibody 0.01 mg/ml, mean of 3.
Assay [2] has as its target Synthetic peptide …. The description is as above.
For assay [3], the target named is SEQ ID NO: 346 glycopeptide with TF-antigen at Ser5. Put plainly: ELISA on coated glycopeptide, antibody 0.01 mg/ml, mean of 3.
Assay [4] has as its target SEQ ID NO: 346 glycopeptide with TF-antigen at Thr16. Described as above.
Assay [5] has as its target SEQ ID NO: 346 glycopeptide with TF-antigen at Thr4 and Thr9. Described as above.
The target of assay [6] is SEQ ID NO: 346 glycopeptide with TF-antigen at Thr4. Described as above.
Assay [7] deals with SEQ ID NO: 346 glycopeptide with TF-antigen at Thr9. The description is as above.
Assay [8] concerns the target SEQ ID NO: 346 glycopeptide with Tn-antigen at Thr4, Thr9 and Thr16. The description is as above.
In assay [9] the target is Normal MUC1 on non-transformed MCF-10A cells and on normal tissue (human) (UniProt P15941). Briefly: immunohistochemistry, colon tissue microarray.
Assay [10] has the same target. Put plainly: immunohistochemistry, colon tissue microarray, normal samples.
For assay [11] the target is unchanged. Put plainly: flow cytometry, MCF10a cells, secondary antibody only.

Chain of BSA (P02769 25-607 limits assumed): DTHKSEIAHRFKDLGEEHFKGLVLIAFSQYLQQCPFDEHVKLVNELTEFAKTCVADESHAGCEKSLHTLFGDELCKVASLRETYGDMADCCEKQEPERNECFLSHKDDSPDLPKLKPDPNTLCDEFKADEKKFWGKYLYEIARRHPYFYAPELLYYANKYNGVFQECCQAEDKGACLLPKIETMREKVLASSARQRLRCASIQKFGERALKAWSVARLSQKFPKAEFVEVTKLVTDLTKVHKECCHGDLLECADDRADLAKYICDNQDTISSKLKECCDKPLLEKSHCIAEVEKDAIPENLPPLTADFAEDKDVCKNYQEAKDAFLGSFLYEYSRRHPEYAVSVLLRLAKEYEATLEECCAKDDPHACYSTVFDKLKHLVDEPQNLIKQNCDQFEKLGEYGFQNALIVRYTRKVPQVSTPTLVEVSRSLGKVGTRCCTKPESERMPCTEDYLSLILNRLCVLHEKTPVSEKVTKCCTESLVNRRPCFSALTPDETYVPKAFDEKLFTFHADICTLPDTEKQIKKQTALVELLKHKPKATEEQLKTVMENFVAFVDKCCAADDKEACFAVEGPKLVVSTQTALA
Chain of Synthetic peptide (…)2 (peptide, as listed by the source): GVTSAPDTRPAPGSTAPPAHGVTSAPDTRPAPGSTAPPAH

As for “VU-3C6 (Abcam), mouse anti-MUC1 antibody”, the percentage of APC+ stained cells in assay [1] amounted to 99.2%. The ELISA absorbance at 450 nm amounted to 0.2 absorbance with BSA; 2.3 absorbance with Synthetic peptide (…)2; 1.5 absorbance in assay [2]; 2 absorbance in [3]; 1.5 absorbance in assay [4]; 2.4 absorbance in [5]. Also, the figures for the ELISA absorbance at 450 nm in [6], in [7] and in assay [8] were 2 absorbance, 2.4 absorbance and 2.4 absorbance, respectively.
Regarding “HMPV (BD Biosciences), mouse anti-MUC1 antibody”, the samples MUC1+ by staining (of 6 normal samples) in assay [9] was determined as 3. This substance yielded an MUC1+ samples stained (of 3 MUC1+ normal samples) in [10] of 3.
For “VU-4H5 (Abnova), mouse anti-MUC1 antibody”, the percentage of APC+ stained cells in [1] is 3.85%. The ELISA absorbance at 450 nm in the assay with BSA was 0.1 absorbance; in the assay with Synthetic peptide (…)2, 2.5 absorbance; in assay [2] it was 1.9 absorbance; in assay [3], 1.8 absorbance; in [4], 1.9 absorbance; in assay [5] it was 0.1 absorbance. For the same substance, the ELISA absorbance at 450 nm in [6] is 1.8 absorbance; in assay [7], 0.1 absorbance; in [8], 0.1 absorbance.
In assay [11], “M-2nd. (APC-labeled secondary antibody only control for the mouse antibodies)” had a percentage of APC+ stained cells of 0.6%.
With “Hu-2nd. (APC-labeled secondary antibody only control for the human antibodies)”, the percentage of APC+ stained cells in [11] worked out at 0.25%.
